Tests used:
[1] = target: canine IgE (canine monoclonal IgE from mouse x dog heterohybridoma cell line 2.39) (canine); assay: flow cytometry; C2 cells loaded with APC-canine IgE, then supernatant of chimera-transfected HEK 293 for 60 min at room temperature; displacement of IgE from FcεRI
[2] = target: canine IgE (canine monoclonal IgE from mouse x dog heterohybridoma cell line 2.39) (canine); assay: affinity estimated from titration to end signal on IgE coated ELISA microtiter plates
[3] = target: canine IgE (canine monoclonal IgE from mouse x dog heterohybridoma cell line 2.39) (canine); assay: flow cytometry; displacement of APC-canine IgE from FcεRI on C2 cells by chimera supernatant

Sequence of canine IgE (canine monoclonal IgE from mouse x dog heterohybridoma cell line 2.39) (canine) (P25054 whole entry): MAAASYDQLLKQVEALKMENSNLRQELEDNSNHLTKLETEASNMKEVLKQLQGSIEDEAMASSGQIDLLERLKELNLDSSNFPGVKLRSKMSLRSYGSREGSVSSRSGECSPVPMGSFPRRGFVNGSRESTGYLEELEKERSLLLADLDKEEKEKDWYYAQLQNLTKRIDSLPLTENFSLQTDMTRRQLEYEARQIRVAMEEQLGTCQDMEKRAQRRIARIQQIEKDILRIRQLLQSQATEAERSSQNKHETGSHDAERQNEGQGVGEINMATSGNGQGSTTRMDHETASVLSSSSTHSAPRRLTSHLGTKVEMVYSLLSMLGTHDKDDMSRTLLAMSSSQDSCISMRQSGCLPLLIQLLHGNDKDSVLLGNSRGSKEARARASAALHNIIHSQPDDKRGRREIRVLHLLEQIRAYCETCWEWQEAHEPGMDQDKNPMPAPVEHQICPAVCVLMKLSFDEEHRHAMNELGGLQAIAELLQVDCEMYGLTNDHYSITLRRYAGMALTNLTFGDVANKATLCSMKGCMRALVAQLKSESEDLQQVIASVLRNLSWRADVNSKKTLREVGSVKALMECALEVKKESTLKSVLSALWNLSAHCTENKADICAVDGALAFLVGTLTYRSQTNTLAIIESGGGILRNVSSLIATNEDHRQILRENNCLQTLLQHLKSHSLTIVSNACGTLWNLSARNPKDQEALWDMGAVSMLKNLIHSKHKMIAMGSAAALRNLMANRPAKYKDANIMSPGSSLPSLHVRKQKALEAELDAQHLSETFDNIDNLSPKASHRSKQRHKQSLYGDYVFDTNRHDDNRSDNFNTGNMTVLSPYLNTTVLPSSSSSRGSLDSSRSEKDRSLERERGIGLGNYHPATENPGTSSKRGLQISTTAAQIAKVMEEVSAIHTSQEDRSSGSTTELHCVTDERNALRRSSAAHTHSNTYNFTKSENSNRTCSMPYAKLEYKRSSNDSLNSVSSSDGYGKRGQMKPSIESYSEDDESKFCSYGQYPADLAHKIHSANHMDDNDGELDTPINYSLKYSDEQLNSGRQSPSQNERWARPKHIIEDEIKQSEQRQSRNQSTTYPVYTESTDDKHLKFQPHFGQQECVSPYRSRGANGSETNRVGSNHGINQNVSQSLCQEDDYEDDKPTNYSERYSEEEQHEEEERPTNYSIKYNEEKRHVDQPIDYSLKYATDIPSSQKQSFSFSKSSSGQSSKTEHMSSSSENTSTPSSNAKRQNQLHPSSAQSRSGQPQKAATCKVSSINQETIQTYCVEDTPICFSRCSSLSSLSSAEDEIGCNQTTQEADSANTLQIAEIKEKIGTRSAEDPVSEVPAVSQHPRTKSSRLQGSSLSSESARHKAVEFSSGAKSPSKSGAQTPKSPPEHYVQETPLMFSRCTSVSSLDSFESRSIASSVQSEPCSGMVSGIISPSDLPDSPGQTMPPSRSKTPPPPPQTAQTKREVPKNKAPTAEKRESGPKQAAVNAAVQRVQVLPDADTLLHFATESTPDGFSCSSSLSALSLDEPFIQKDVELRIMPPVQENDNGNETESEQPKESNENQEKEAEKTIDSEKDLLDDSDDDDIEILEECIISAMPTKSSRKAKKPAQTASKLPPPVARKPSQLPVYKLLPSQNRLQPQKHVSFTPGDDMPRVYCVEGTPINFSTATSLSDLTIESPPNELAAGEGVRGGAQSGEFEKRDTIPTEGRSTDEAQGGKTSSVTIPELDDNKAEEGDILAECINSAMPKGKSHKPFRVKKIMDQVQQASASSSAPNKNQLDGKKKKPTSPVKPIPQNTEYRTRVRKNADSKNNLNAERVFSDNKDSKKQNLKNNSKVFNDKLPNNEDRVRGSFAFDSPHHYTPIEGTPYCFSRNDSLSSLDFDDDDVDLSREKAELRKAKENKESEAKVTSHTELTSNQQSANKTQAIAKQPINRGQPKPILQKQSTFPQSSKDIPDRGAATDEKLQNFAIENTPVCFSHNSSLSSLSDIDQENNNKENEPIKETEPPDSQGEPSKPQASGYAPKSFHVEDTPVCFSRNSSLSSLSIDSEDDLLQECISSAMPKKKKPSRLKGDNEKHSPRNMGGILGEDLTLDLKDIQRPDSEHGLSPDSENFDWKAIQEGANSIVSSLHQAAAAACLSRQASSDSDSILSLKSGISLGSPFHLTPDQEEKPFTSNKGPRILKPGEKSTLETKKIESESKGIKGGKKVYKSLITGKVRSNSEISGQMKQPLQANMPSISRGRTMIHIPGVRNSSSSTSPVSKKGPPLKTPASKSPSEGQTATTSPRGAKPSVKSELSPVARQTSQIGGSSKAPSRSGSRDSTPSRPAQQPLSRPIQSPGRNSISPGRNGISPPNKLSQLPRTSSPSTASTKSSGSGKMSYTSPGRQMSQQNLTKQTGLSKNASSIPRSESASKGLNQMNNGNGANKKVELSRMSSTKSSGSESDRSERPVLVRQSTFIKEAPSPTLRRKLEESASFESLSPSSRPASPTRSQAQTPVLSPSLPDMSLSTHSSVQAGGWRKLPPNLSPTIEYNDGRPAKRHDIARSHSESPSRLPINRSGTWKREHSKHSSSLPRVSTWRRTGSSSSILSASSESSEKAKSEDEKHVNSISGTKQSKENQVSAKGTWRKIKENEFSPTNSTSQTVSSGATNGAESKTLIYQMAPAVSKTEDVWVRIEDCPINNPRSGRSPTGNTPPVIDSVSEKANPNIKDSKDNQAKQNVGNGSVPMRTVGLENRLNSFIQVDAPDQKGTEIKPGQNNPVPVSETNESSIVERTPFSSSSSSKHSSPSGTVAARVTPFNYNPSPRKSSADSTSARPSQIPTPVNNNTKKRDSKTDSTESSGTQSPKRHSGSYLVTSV

B1: chimera of canine FcεRI alpha chain x scFv-5.91 (protein)
chain: DTLKPTVSMNPPWNTILKDDSVTLTCTGNNSLEVDSAVWLHNNTTLQETTSRLDINKAQIQDSGEYRCRENRSILSDPVYLTVFTEWLILQASANVVMEGESFLIRCHSWKNLRLTKVTYYKDGIPIRYWYENFNISISNVTTKNSGNYSCSGQIQQKGYTSKVLNIIVKKEPTKQNKYSGLQGGGGSGGGGSGGGGSEVQLQQSGPELVKPGASMKISCKASGYSITGYTIHWVKQSHGKNLEWIGLINPYTGGITYNQNFKGKATLTVDKSSSTAYMELLSLTSEDSAVYYCSRGPYGNFYAMDYWGQGTSVTVSSGGGGSGGGGSGGGGSDIQMTQSPASLSASVGETVTITCRASGNIHNYLAWYQQKQGKSPQLLVYNAKTLADSVPSRFSGSGSGTQFSLKINSLQPEDFGSYYCQHFWSTPYTFGGGTKLEIKRA
How did the % cells with label (after chimera supernatant) [1] turn out when B1 was run?
The % cells with label (after chimera supernatant) was 4.11%.

What about the affinity [2] of the same binder?
Its affinity is 100 pM.

What about the loss of mast cells carrying IgE [3] of the same binder?
Its loss of mast cells carrying IgE is greater than 50%.

Source: patent publication US20180230236A1
